We go through one molecule from publication PMC8479633.

Experiment [1] has as its target wild type full-length SMAD2 (S2FLWT), Q15796. Put plainly: SAXS with ensemble optimisation. As to conditions: remark: other sources report otherwise.
The target is the same in experiment [2]. Description: SAXS with ensemble optimisation. As to conditions: remark: other sources report otherwise. The source holds these as a separate data set.

B1: wild type full-length SMAD2 (S2FLWT), Q15796 1-467 (natural protein)
chain: MSSILPFTPPVVKRLLGWKKSAGGSGGAGGGEQNGQEEKWCEKAVKSLVKKLKKTGRLDELEKAITTQNCNTKCVTIPSTCSEIWGLSTPNTIDQWDTTGLYSFSEQTRSLDGRLQVSHRKGLPHVIYCRLWRWPDLHSHHELKAIENCEYAFNLKKDEVCVNPYHYQRVETPVLPPVLVPRHTEILTELPPLDDYTHSIPENTNFPAGIEPQSNYIPETPPPGYISEDGETSDQQLNQSMDTGSPAELSPTTLSPVNHSLDLQPVTYSEPAFWCSIAYYELNQRVGETFHASQPSLTVDGFTDPSNSERFCLGLLSNVNRNATVEMTRRHIGRGVRLYYIGGEVFAECLSDSAIFVQSPNCNQRYGWHPATVCKIPPGCNLKIFNNQEFAALLAQSVNQGFEAVYQLTRMCTIRMSFVKGWGAEYRRQTVTSTPCWIELHLNGPLQWLDKVLTQMGSPSVRCSSMS
Molecule B1 displayed a percent of the population as trimer in experiment [1] of 16.4%. In experiment [2], this molecule came in with a percent of the population as dimer of 18% and a percent of the population as trimer of 1%.
